US20220363769A1 (SORRISO PHARMACEUTICALS, published 2022)
Where two headings read alike, the source gives them in different places.

T1: recombinant human IL-7Rα-His6-Fc (human, UniProt P16871 21-239)
T1 construct: also called hIL-7R; not shown: His6 tag; Fc (captured by anti-human IgG Fc)
T1 chain: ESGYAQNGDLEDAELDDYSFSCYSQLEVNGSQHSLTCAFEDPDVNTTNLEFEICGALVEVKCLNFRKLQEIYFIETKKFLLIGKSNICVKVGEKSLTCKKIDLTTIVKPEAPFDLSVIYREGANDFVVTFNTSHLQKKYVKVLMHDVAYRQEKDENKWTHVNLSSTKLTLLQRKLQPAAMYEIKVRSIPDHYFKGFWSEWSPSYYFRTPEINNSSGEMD

T2: human IL-7Rα (human, UniProt P16871 21-239)
T2 chain: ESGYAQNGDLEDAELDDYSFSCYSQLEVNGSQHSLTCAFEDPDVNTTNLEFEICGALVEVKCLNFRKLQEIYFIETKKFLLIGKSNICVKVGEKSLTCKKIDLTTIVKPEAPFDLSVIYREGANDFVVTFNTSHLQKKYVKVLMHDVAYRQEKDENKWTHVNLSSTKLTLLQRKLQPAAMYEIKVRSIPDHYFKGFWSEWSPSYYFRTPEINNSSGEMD

T3: murine IL-7Rα (murine, UniProt P16872 21-239)
T3 construct: also called mouse IL-7R
T3 sequence (looked up): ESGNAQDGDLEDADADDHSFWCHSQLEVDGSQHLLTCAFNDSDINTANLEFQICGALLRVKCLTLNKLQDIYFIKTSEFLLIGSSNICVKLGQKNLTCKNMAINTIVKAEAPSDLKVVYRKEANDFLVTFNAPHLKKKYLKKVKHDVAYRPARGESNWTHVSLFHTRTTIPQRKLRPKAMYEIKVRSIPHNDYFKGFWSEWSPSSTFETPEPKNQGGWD

T4: cynomolgus monkey IL-7Rα (cynomolgus monkey, UniProt Q38IC7 21-239, limits assumed)
T4 construct: also called cynomolgus IL-7Rα
T4 sequence: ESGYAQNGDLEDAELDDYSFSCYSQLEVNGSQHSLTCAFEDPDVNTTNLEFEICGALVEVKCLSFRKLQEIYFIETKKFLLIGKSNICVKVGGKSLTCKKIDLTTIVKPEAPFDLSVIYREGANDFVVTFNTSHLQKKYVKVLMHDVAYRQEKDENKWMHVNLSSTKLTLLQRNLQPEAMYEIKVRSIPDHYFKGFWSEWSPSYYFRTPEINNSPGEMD

T5: TNFR-2 (human, UniProt P20333 23-257)
T5 sequence (looked up): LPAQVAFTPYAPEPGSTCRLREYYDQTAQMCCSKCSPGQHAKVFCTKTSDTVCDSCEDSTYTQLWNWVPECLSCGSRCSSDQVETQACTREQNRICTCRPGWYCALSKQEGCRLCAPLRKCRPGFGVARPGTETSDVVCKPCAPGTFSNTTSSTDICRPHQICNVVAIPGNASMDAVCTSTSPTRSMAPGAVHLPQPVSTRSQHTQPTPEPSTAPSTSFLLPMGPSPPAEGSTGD

T6: IL-6R (human, UniProt P08887 20-358, limits assumed)
T6 sequence (looked up): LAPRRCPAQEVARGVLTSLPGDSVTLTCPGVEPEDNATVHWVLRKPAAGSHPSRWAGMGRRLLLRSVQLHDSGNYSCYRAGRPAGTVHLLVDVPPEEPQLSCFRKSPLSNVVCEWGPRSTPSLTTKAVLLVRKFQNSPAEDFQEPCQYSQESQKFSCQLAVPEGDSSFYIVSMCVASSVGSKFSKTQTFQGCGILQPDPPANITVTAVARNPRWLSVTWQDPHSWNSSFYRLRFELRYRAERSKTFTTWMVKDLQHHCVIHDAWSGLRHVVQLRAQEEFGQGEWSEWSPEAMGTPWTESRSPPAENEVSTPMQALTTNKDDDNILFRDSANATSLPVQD

T7: IL-9R (human, UniProt Q01113 41-270, limits assumed)
T7 sequence (looked up): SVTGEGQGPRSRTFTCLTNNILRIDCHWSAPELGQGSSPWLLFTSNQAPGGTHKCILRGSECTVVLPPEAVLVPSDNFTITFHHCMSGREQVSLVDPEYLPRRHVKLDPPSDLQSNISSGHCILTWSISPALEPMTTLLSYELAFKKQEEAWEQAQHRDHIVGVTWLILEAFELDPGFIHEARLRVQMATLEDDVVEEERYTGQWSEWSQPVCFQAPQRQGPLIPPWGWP


Assays:
[1] = target: T1, recombinant human IL-7Rα-His6-Fc; experiment: IL-7/IL-7Rα-His6-Fc ELISA; inhibition of IL-7 binding to IL-7R
[2] = target: T1, recombinant human IL-7Rα-His6-Fc; experiment: IL-7/IL-7R neutralising ELISA; inhibition of IL-7 binding to IL-7R
Experimental: (§1) A 7-point dilution series of the clones was prepared in 1% BSA (at 2× the assay concentration) starting at 300 nM and using a 3.2 dilution factor. […] Block buffer alone was also added to each plate as blank. […] TMB reaction was stopped after 30 minutes.

[3] = target: T1, recombinant human IL-7Rα-His6-Fc; experiment: TSLP/TSLPR/IL-7R ELISA; inhibition of L-TSLP/TSLP-R complex binding to plate-coated IL-7Rα-His6-Fc
Experimental: (§2) 96-well plates were coated with 0.25 μg/mL recombinant human IL-7Rα-His₆-Fc+ 5 μg/mL BSA and then blocked. […] Then the mixtures were incubated for 30 minutes to allow binding before adding to the IL-7Rα coated plates.

[4] = target: T1, recombinant human IL-7Rα-His6-Fc; experiment: IL-7/IL-7R neutralisation ELISA; inhibition of IL-7 binding to IL-7R
[5] = target: T1, recombinant human IL-7Rα-His6-Fc; experiment: as above
Experimental: A 7-point dilution series of the clones was prepared in 1% BSA (at 2× the assay concentration) starting at 300 nM and using a 3.2 dilution factor. […] Block buffer alone was also added to each plate as blank. […] TMB reaction was stopped after 30 minutes. […]

human IL-7Rα [6] = target: T2, human IL-7Rα; experiment: cell-based or functional assay
human IL-7Rα [7] = target: T2, human IL-7Rα; experiment: cell-based or functional assay
[8] = target: T1, recombinant human IL-7Rα-His6-Fc; experiment: IL-7/IL-7R neutralising ELISA; inhibition of IL-7 binding to IL-7R
Experimental: as §1
EC₅₀ values were generated in Graphpad prism using the ELISA signal blank corrected A450 data and ‘log(inhibitor) vs. response—Variable slope (four parameters)’ to fit curves and generate EC₅₀.

[9] = target: T1, recombinant human IL-7Rα-His6-Fc; experiment: Biacore; IL-7Rα-His6-Fc captured by anti-human IgG Fc, ICVD flowed over
human IL-12Rβ1 = target: T8, human IL-12Rβ1 (human, UniProt P42701 24-545, limits assumed); experiment: competition ELISA: ID-A40U premixed with serially diluted soluble receptor, then added to plate-coated human IL-7Rα; bound ICVD detected [right panel]
T8 construct: also called hIL-12Rβ1; IL-12Rα1 (as printed in the result sentence)
Experimental: (§3) 96-well plates were coated with 0.5 μg/mL recombinant human IL-7Rα His₆-Fc +5 μg/mL BSA and then blocked. 0.5 nM of ICVD was mixed 1:1 with the test compounds of choice serially diluted in 1% BSA, then incubated for 30 minutes to allow binding before adding to the IL-7Rα coated plates. Following 2 hours incubation, bound ICVD was detected with 50 uL/well 1/20000 anti-FLAG-HRP Goat antibody (GeneTex, GTX21238), and the level of neutralisation of ICVD-IL-7Rα binding by the test compounds was determined.

IL-21R = IL-21R (human, UniProt Q9HBE5 20-232, limits assumed); experiment: as above
Chain of IL-21R (Q9HBE5 20-232 limits assumed): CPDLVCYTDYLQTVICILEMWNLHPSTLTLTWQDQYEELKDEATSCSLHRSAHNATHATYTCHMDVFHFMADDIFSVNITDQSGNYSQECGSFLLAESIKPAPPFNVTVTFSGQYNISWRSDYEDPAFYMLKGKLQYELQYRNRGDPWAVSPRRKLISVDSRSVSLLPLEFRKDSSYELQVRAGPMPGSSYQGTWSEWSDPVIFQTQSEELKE
Experimental: as §3

murine IL-7Rα = target: T3, murine IL-7Rα; experiment: competition ELISA: ID-A40U premixed with serially diluted soluble IL-7R, then added to plate-coated human IL-7Rα-His6-Fc; bound ICVD detected
Experimental: as §3

cynomolgus monkey IL-7Rα [10] = target: T4, cynomolgus monkey IL-7Rα; experiment: as above
Experimental: as §3

TNFR-2 = target: T5, TNFR-2; experiment: competition ELISA: ID-A40U premixed with serially diluted soluble receptor, then added to plate-coated human IL-7Rα; bound ICVD detected [left panel]
Experimental: as §3

IL-6R = target: T6, IL-6R; experiment: as above
Experimental: as §3

IL-9R = target: T7, IL-9R; experiment: as above
Experimental: as §3

[11] = target: T1, recombinant human IL-7Rα-His6-Fc; experiment: TSLP/TSLPR/IL-7R ELISA; inhibition of L-TSLP/TSLP-R complex binding to plate-coated IL-7Rα-His6-Fc
Experimental: as §2
A subtraction was performed on the data set before graphing which normalised to the highest concentration of antibody tested (to overcome a high level of background on the plate).

cynomolgus monkey IL-7Rα [12] = target: T4, cynomolgus monkey IL-7Rα; experiment: competition ELISA: A62U premixed with serially diluted soluble IL-7R, then added to plate-coated human IL-7Rα-His6-Fc; bound ICVD detected [right panel (cross-reactivity A62U]
Experimental: as §3

[13] = target: T1, recombinant human IL-7Rα-His6-Fc; experiment: IL-7/IL-7R neutralisation ELISA; inhibition of IL-7 binding to IL-7R

EC50 [1] [nM]	EC50 [2] [nM]	EC50 [3] [nM]	EC50 [4] [nM]	EC50 [5] [nM]	IL-7 induced pSTAT5 in hPBMCs EC50 (human IL-7Rα [6]) [nM]	IL-7 induced pSTAT5 in hPBMCs EC50 (human IL-7Rα [7]) [nM]	EC50 [8] [nM]	Kd [9] [nM]	binding result (human IL-12Rβ1)	binding result (IL-21R)	binding result (murine IL-7Rα)	binding result (cynomolgus monkey IL-7Rα [10])	binding result (TNFR-2)	binding result (IL-6R)	binding result (IL-9R)	EC50 [11] [nM]	binding result (cynomolgus monkey IL-7Rα [12])	EC50 [13] [nM]	Binder
0.6	0.818	0.32	0.818	0.37 to 0.67	2.86	2.86	0.368												V7R-2E9 (VHH, llama ICVD, primary clone, expressed in E. coli TG1; parent of the ID-A series; not shown: C-terminal FLAG and 6xHis tags from vector pMEK222) VHH: EVQLVESGGGLVQAGGSLRLSCESSISTFSSDAMGWFRQAPGKEREFLAAIGWSGAVTHYSDSVQGRFTISRDNAKNTVYLQMNSLKSEDTGRYYCAEDYDTDVWQYWGQGTQVTVSS
0.544			0.544					0.078	no binding (tested: 100 ng/mL)	no binding (tested: 100 ng/mL)	no binding (tested: 100 ng/mL)	binds	no binding (tested: 100 ng/mL)	no binding (tested: 100 ng/mL)	no binding (tested: 100 ng/mL)				ID-A40U (VHH, V7R-2E9 with Q65K, K87R, S88A; produced in E. coli; also called A40U-F/H; not shown: Flag-His6 tag) VHH: EVQLVESGGGLVQAGGSLRLSCESSISTFSSDAMGWFRQAPGKEREFLAAIGWSGAVTHYSDSVKGRFTISRDNAKNTVYLQMNSLRAEDTGRYYCAEDYDTDVWQYWGQGTQVTVSS
																0.74	binds	0.4	ID-A62U (VHH, V7R-2E9 with E1D, R45L, Q65K, K87R, S88A; produced in S. cerevisiae) VHH: DVQLVESGGGLVQAGGSLRLSCESSISTFSSDAMGWFRQAPGKELEFLAAIGWSGAVTHYSDSVKGRFTISRDNAKNTVYLQMNSLRAEDTGRYYCAEDYDTDVWQYWGQGTQVTVSS
